Reference: the DeepSol protein solubility set

experiment: soluble on expression in E. coli; label from the status in PepcDB or PDB records

Row | Sequence | soluble on expression in E. coli
1 | MATNRSRRLRKKLCVDEFQELGFELNLDFKQELDDKAIDAFLDAFLKEAMEANGLGYVGGDDFGLVCLSKRGSVSEEQRAAVEAWLKGRSELTEVTVSPLIDVWY | not soluble
2 | MSLAQAPHPERIYLSGTGIDNTKTWDFFCSAGQNSGKWKKIEVPCNWELQGFGEYTYGRWYTIKGQHPSDETGTYRYKFDAPKSWAGQRVKIFFDGVMTDAEIMINGKPAGEMHQGGFYRFNYDITELLNLGKKNQLEVKVAKESANRSINAAERKADWWLFGGIYRPVWLEVLPQIHMEHFVLNADHQGKLQAAVDMAGDAKGHEIIVSVRSLKDGKTVYTSNGQTTITHSISNSDKEQMISGEWASIIPWSTENPNLYVAKLELKNPEGKIVQTRETRIGFRTVEFFPQDGVYLNGTKLVVKGINRHSFSVDGGRTTSAALSRMDALLIKEMNMNAVRSHYPPDEHFLDMCDSLGLVYMDELAGWQNGYDSRVGAKLVKEMIERDVNHPCIILWSNGNEGGWNTQTDPLFAQYDRLQKRHMVHPWADFNDLDTHHYPTYLTGVARFTNGYKVFMPTEFMHAMYDQGGGAGLRDFWDRWCTNPLFAGGFIWVYCDEAPKRSDKGGILDSDKSNAPDGVVGPRREKEGSYYAIRAQWSPIQLKPLLITNHFDGRFLLTNEYTFTNLKDCRMTYKVLSCGTPLQGNAEAGKVIAEGKVQLPSINPGETGTARFELPDSFRKGDVLELEAFDREGKSICNWTYPIHLAKQYFERNLAQTTLTPAPQKAEARQTSDAIELKSSKVSITFDAATGMIRHIKSGETEVPFKDGPVAIGMKMRYEPSLSYTRHSSDGAIYCAKYKGAADSIVWRLTNEGLLYMDAILLNRGSGGGGFDDAFMDAQVFNLGLSFSYPEQNCSGMKWMGRGPYRVWKNRIPGTNYGIWHKDYNNTITGESFENLIYPEFKGYHANLYWATLEGEKTSFTVYSRNDGTFFRVFTPEEPAGRIKDTMPAFPEGDLSFLLDIPAICSFKPIEQQGPNSQPGNIRIKSGDEGLHLNLMFDFREGHHHHHH | soluble
3 | MGSDKIHHHHHHMVIYMIGGSPCSGKSTIASLLARQYQLLHIKLDDLVDEMMSQASADSQPICLLRQDRNPEQIWMRNPKEMADEEWRFYEEIFPYVKSYLIKKDRPLLVEGAGLLPHLVKELEWPASSYLCLTPTADFQKKHYRQREWVSYVLEGTTNPEQAFENWMQRDILFAQMVRKEAMRLGYSSLMTDGSQSEKQTAEEIARLLKLYNINEIDIKGENT | not soluble
4 | YNVLENEELRFQLTIQKEQIEFQRNKYEQLGAAYKNIRSFMHDTKKHLFYIENCVTEKKYDDIIPYSKEIMHDLESRYCTINTGNLVIDAFVSNLLLQTKAQGITLHTNLKFDKATIPVNDYHLTIILGNLLDNALNACRGQIGANIKVAVRTVDGTFTIHVANTYVIADPDKAPDDFEKIDFIHGYGLKNVKDSAEACGGFCVIHHENDVYSATVIIPILNP | not soluble
5 | MGSDKIHHHHHHMKRTPGPNKRGSKRMQPNLKFSRGEFADRLAKTRRAMEARGVDLLIVSDPSNMAWLTGYDGWSFYVHQAVIVPPSGEPVWYGRGQDANGAKRTAYLAQNNIVGYADHYVQSTERHPMDFLSSVLSDRGWGKLTIGVEMDNYWFSAAAFASLQKHLPNARFVDATALVNWQRAVKSPTEIDYMRKAARIVEAMHQRIFDRIEIGMRKCDLVAEIYDAGTRGVDGIGGDYPAIVPLLPSGVDASAPHLTWDDQPMKRGEGTFFEIAGCYNRYHCPLSRTVFLGKPTQEFLDAEKATLEGMEAGLAAAKPGNACEDIANAFFAVLKKYGIVKDNRTGYSIGLSYPPDWGERTMSLRPGDHTELKPGMTFHFMTGLWLETMGLEITESILITETGVECLANVPRKLVVKN | not soluble
6 | MMNMITVIGFGSFGRKVVNFIKNKEPITIIDKNIDDADDLVKEGVTVIVGDATQDEVLKKAKIENADIVLILTNEPEVNRRIAERVCELSPNSYKIARAIPRYPELYMGLNIDKIINILESGAKDIAKEVEDAKLKRKLMQLKSVLIEGKKRCMKLEKTEEEKKAPLLILTHINPDPDAIASAMALKTLAERWGVDSDIAYGGNIGYDENKAMINLLGIKLLNVEDIDLDNYCVIAVIDTSTSKQLPIELPNIDIIIDHHNNTDLTAKYMDVRPEVGATASILTQYLMELDIEPSRNLATALFYGIQSDTDYFKRETSKLDFEAAAYLQSYIDASILNMIENPEISTEVMEVLAKAVMNRRVVKGNIALAYVGEISNRDALPKAADFLLKMEGISTTFVFGIVGDEIHISARTKDLRLNLGEILNKAFGGGGHQTAAAAKIPLGIFKAVSDKEALRKLVEEAIRAKILEVIGIKEEEK | not soluble
